{"source": "patent US20080305188A9", "about": "“Composition and method for supporting cancer treatments” (priority 2003, published 2008)", "key": {"[1]": {"assay": "Pharmacokinetics study of intravenous injection of matrine or oxymatrine with addition of geranium oil (HPLC peak areas)", "conditions": "with addition of geranium oil versus compound alone"}, "[2]": {"conditions": "in vivo, iv"}, "white blood cells": {"test_system": "white blood cells", "conditions": "taken orally; previously published animal experiments and clinical trials; cited from earlier work"}, "[3]": {"test_system": "BALB/c mice injected with 5-Fu", "assay": "Blood cell counts in mice given 5-Fu (reduction of bone marrow suppression)", "assay_type": "in vivo"}, "[4]": {"assay": "Body weight of mice given 5-Fu", "assay_type": "in vivo"}, "[5]": {"conditions": "Day 10, 5-Fu 135 mg/kg IP single dose only"}, "[6]": {"conditions": "Day 14, 5-Fu 135 mg/kg IP single dose only"}, "[7]": {"conditions": "Day 10, 135 μg/mouse G-CSF and 5-Fu"}, "[8]": {"conditions": "Day 14, 135 μg/mouse G-CSF and 5-Fu"}}, "note": "Where two headings read alike, the source gives them in different places. Marks after values point to notes of the source that are not given here.", "data": [{"molecule": "O=C1CCC[C@@H]2[C@H]3CCCN4CCC[C@@H](CN12)[C@@H]34", "note": "[matrine]", "values": [{"measurement": "absorption and metabolism of the compound (changes in HPLC peak areas over time)", "setting": "[1]", "result": "increase the absorption and metabolism"}]}, {"molecule": "O=C1CCC[C@@H]2[C@H]3CCC[N+]4([O-])CCC[C@@H](CN12)[C@@H]34", "note": "(stereo partly shown) [oxymatrine]", "values": [{"measurement": "absorption and metabolism of the compound (changes in HPLC peak areas over time)", "setting": "[2]", "result": "increase the absorption and metabolism"}, {"measurement": "effect on increasing white blood cells", "setting": "white blood cells", "result": "does not show any effect on increasing white blood cells"}]}, {"molecule": "O=c1[nH]cc(F)c(=O)[nH]1", "note": "[5-Fu, 5-Fluorouracil, reference compound]", "values": [{"measurement": "GR (granulocytes) count", "setting": "[3]; [5]", "result": "0.25 ± 0.050 10^3/μl"}, {"measurement": "LY (lymphocytes) count", "setting": "[3]; [5]", "result": "3.66 ± 0.648 10^3/μl"}, {"measurement": "MO (monocytes) count", "setting": "[3]; [5]", "result": "0.25 ± 0.046 10^3/μl"}, {"measurement": "PLT (platelets) count", "setting": "[3]; [5]", "result": "2828 ± 632.4 10^3/μl"}, {"measurement": "RBC (erythrocytes) count", "setting": "[3]; [5]", "result": "7.86 ± 0.171 10^6/μl"}, {"measurement": "WBC (total leukocytes) count", "setting": "[3]; [5]", "result": "4.17±0.677 10^3/μl"}, {"measurement": "GR (granulocytes) count", "setting": "[3]; [6]", "result": "1.65 ± 0.756 10^3/μl"}, {"measurement": "LY (lymphocytes) count", "setting": "[3]; [6]", "result": "5.75 ± 0.880 10^3/μl"}, {"measurement": "MO (monocytes) count", "setting": "[3]; [6]", "result": "0.59 ± 0.316 10^3/μl"}, {"measurement": "PLT (platelets) count", "setting": "[3]; [6]", "result": "2219 ± 750.2 10^3/μl"}, {"measurement": "RBC (erythrocytes) count", "setting": "[3]; [6]", "result": "8.09 ± 0.331 10^6/μl"}, {"measurement": "WBC (total leukocytes) count", "setting": "[3]; [6]", "result": "7.98 ± 1.575 10^3/μl"}, {"measurement": "weight of mice", "setting": "[4]; Day 0, 5-Fu only group, in g", "result": "22.0 ± 0.93"}, {"measurement": "weight of mice", "setting": "[4]; Day 10, 5-Fu only group", "result": "22.3 ± 1.53", "unit": "g"}, {"measurement": "weight of mice", "setting": "[4]; Day 14, 5-Fu only group, in g", "result": "23.5 ± 0.78"}, {"measurement": "weight of mice", "setting": "[4]; Day -2, 5-Fu only group, in g", "result": "20.7 ± 0.90"}]}, {"molecule": "G-CSF/5-Fu: granulocyte colony-stimulating factor, comparison treatment given with 5-Fu (protein, UniProt P09919 31-207, looked up) Granulocyte …: TPLGPASSLPQSFLLKCLEQVRKIQGDGAALQEKLVSECATYKLCHPEELVLLGHSLGIPWAPLSSCPSQALQLAGCLSQLHSGLFLYQGLLQALEGISPELGPTLDTLQLDVADFATTIWQQMEELGMAPALQPTQGAMPAFASAFQRRAGGVLVASHLQSFLEVSYRVLRHLAQP", "values": [{"measurement": "GR (granulocytes) count", "setting": "[3]; [7]", "result": "0.71 ± 0.268** 10^3/μl"}, {"measurement": "LY (lymphocytes) count", "setting": "[3]; [7]", "result": "5.01 ± 1.372* 10^3/μl"}, {"measurement": "MO (monocytes) count", "setting": "[3]; [7]", "result": "0.38 ± 0.141* 10^3/μl"}, {"measurement": "PLT (platelets) count", "setting": "[3]; [7]", "result": "2303 ± 491.7 10^3/μl"}, {"measurement": "RBC (erythrocytes) count", "setting": "[3]; [7]", "result": "7.82 ± 0.424 10^6/μl"}, {"measurement": "WBC (total leukocytes) count", "setting": "[3]; [7]", "result": "5.46±2.338 10^3/μl"}, {"measurement": "bone marrow suppression effect (WBC) relative to that of 5-Fu only", "setting": "[3]; [7]", "result": 51, "unit": "%"}, {"measurement": "suppression effect with respect to granulocytes relative to 5-Fu only", "setting": "[3]; [7]", "result": 54, "unit": "%"}, {"measurement": "suppression effect with respect to lymphocytes relative to 5-Fu only", "setting": "[3]; [7]", "result": 18, "unit": "%"}, {"measurement": "suppression effect with respect to monocytes relative to 5-Fu only", "setting": "[3]; [7]", "result": 7, "unit": "%"}, {"measurement": "WBC (total leukocytes) count", "setting": "[3]; Day 10, 135 μg/mouse G-CSF and 5-Fu, listed as C-GSF/5-Fu", "result": "5.46 ± 2.338 10^3/μl"}, {"measurement": "GR (granulocytes) count", "setting": "[3]; [8]", "result": "1.64 ± 0.405 10^3/μl"}, {"measurement": "LY (lymphocytes) count", "setting": "[3]; [8]", "result": "6.12 ± 1.164 10^3/μl"}, {"measurement": "MO (monocytes) count", "setting": "[3]; [8]", "result": "0.58 ± 0.266 10^3/μl"}, {"measurement": "PLT (platelets) count", "setting": "[3]; [8]", "result": "2105 ± 378.1 10^3/μl"}, {"measurement": "RBC (erythrocytes) count", "setting": "[3]; [8]", "result": "8.02 ± 0.340 10^6/μl"}, {"measurement": "WBC (total leukocytes) count", "setting": "[3]; [8]", "result": "8.34 ± 1.454 10^3/μl"}, {"measurement": "total leukocyte count and lymphocyte count (only these) versus 5-Fu only", "setting": "[3]; [8]", "result": "continued to increase to a higher level than that of mice treated with 5-Fu only"}, {"measurement": "weight of mice", "setting": "[4]; Day 0, G-CSF and 5-Fu, in g", "result": "22.0 ± 1.84"}, {"measurement": "weight of mice", "setting": "[4]; Day 14, G-CSF and 5-Fu, in g", "result": "24.0 ± 1.64"}, {"measurement": "weight of mice", "setting": "[4]; Day -2, G-CSF and 5-Fu, in g", "result": "20.5 ± 1.76"}]}]}
